Changes are numbered by the printed parent chain. Names may count otherwise.

B1: GCDB40 (bispecific antibody, V domains shown)
VH 1: EVQLVESGGGLVQPGGSLRLSCAASGFTFNTYAMNWVRQAPGKGLEWVARIRSKYNNYATYYAASVKGRFTISRDDSKNSLYLQMNSLKTEDTAVYYCARHGNFGNSYVSWFAYWGQGTLVTVSS
VL 1: QTVVTQEPSLTVSPGGTVTLTCRSSTGAVTTSNYANWVQQKPGQAPRGLIGGTNKRAPGTPARFSGSLLGGKAALTLSGVQPEDEAEYYCALWYSNLWVFGGGTKLTVL
VH 2: EVQLLESGGGLVQPGGSLRLSCAASGFTFSDYGMHWVRQAPGKGLEWVSAIKYSGGSTYYADSVKGRFTISRDNSKNTLYLQMNSLRAEDTAVYYCAKRAESGPGLDYWGQGTLVTVSS
VL 2: not shown
B2: GCDB43 (bispecific antibody, V domains shown)
VH 1: B1 VH 1
VL 1: B1 VL 1
VH 2: not shown
VL 2: not shown
B3: GCDB44 (bispecific antibody, V domains shown)
VH 1: B1 VH 1
VL 1: B1 VL 1
VH 2: not shown
VL 2: EIVLTQSPATLSLSPGERATLSCRASQSVSSYLAWYQQKPGQAPRLLIYDASNRATGIPARFSGSGSGTDFTLTISSLEPEDFAVYYCQQRSNWPLTFGQGTKVEIK
B4: GCDB41 (bispecific antibody, V domains shown)
VH 1: B1 VH 1
VL 1: B1 VL 1
VH 2: QVQLVQSGAEVKKPGSSVKVSCKASGGTFSSYGISWVRQAPGQGLEWMGGIIPIFGNINYAQKFQGRVTITADESTSTAYMELSSLRSEDTAVYYCARVSRRFKRFAYYFDYWGQGTLVTVSS
VL 2: not shown
B5: GCDB35 (bispecific antibody, V domains shown)
VH 1: B1 VH 1
VL 1: B1 VL 1
VH 2: EVQLVQSGAEVKKPGESLKISCKGSGYSFTSYWIGWVRQMPGKGLEWMGIIYPGDSDTRYSPSFQGQVTISADKSISTAYLQWSSLKASDTAMYYCARVYSFGGRHKALFDYWGQGTLVTVSS
VL 2: B3 VL 2
B6: GC5B471 (antibody, V domains shown)
VH: B5 VH 2 with W33Y, D55A
VL: B3 VL 2
notes: GC5B164 PTM variant, Hc GC5H278
B7: GC5B484 (antibody, V domains shown)
VH: B5 VH 2 with W33G, D55K
VL: B3 VL 2
notes: GC5B164 PTM variant, Hc GC5H265
B8: GC5B493 (antibody, V domains shown)
VH: B5 VH 2 with W33F, D55Y
VL: B3 VL 2
notes: GC5B164 PTM variant, Hc GC5H256
B9: GC5B490 (antibody, V domains shown)
VH: B5 VH 2 with W33A, D55E
VL: B3 VL 2
notes: GC5B164 PTM variant, Hc GC5H259
B10: GC5B476 (antibody, V domains shown)
VH: B5 VH 2 with W33Y, D55S
VL: B3 VL 2
notes: GC5B164 PTM variant, Hc GC5H273
B11: GC5B479 (antibody, V domains shown)
VH: B5 VH 2 with W33G, D55S
VL: B3 VL 2
notes: GC5B164 PTM variant, Hc GC5H270
B12: GC5B475 (antibody, V domains shown)
VH: B5 VH 2 with W33A, D55A
VL: B3 VL 2
notes: GC5B164 PTM variant, Hc GC5H274
B13: GC5B492 (antibody, V domains shown)
VH: B5 VH 2 with W33V, D55Y
VL: B3 VL 2
notes: GC5B164 PTM variant, Hc GC5H257
B14: GC5B485 (antibody, V domains shown)
VH: B5 VH 2 with W33A, D55K
VL: B3 VL 2
notes: GC5B164 PTM variant, Hc GC5H264
B15: GC5B478 (antibody, V domains shown)
VH: B5 VH 2 with W33F, D55S
VL: B3 VL 2
notes: GC5B164 PTM variant, Hc GC5H271
B16: GC5B477 (antibody, V domains shown)
VH: B5 VH 2 with W33V, D55S
VL: B3 VL 2
notes: GC5B164 PTM variant, Hc GC5H272
B17: GC5B481 (antibody, V domains shown)
VH: B5 VH 2 with W33Y, D55K
VL: B3 VL 2
notes: GC5B164 PTM variant, Hc GC5H268
B18: GC5B483 (antibody, IgG4, V domains shown)
VH: B5 VH 2 with W33F, D55K
VL: B3 VL 2
notes: GC5B164 variant D55K, W33F; IgG4 S228P, L234A, L235A; also called GC5H266
B19: GC5B480 (antibody, V domains shown)
VH: B5 VH 2 with W33A, D55S
VL: B3 VL 2
notes: GC5B164 PTM variant, Hc GC5H269
B20: GC5B487 (antibody, V domains shown)
VH: B5 VH 2 with W33V, D55E
VL: B3 VL 2
notes: GC5B164 PTM variant, Hc GC5H262
B21: GC5B473 (antibody, V domains shown)
VH: B5 VH 2 with W33F, D55A
VL: B3 VL 2
notes: GC5B164 PTM variant, Hc GC5H276
B22: GC5B491 (antibody, V domains shown)
VH: B5 VH 2 with W33Y, D55Y
VL: B3 VL 2
notes: GC5B164 PTM variant, Hc GC5H258
B23: GC5B494 (antibody, V domains shown)
VH: B5 VH 2 with W33G, D55Y
VL: B3 VL 2
notes: GC5B164 PTM variant, Hc GC5H255
B24: GC5B472 (antibody, V domains shown)
VH: B5 VH 2 with W33V, D55A
VL: B3 VL 2
notes: GC5B164 PTM variant, Hc GC5H277
B25: GC5B498 (antibody, V domains shown)
VH: B5 VH 2 with W33F
VL: B3 VL 2
notes: GC5B164 PTM variant, Hc GC5H251
B26: GC5B505 (antibody, V domains shown)
VH: B5 VH 2 with D55Y
VL: B3 VL 2
notes: GC5B164 PTM variant, Hc GC5H244
B27: GC5B482 (antibody, V domains shown)
VH: B5 VH 2 with W33V, D55K
VL: B3 VL 2
notes: GC5B164 PTM variant, Hc GC5H267
B28: GC5B486 (antibody, V domains shown)
VH: B5 VH 2 with W33Y, D55E
VL: B3 VL 2
notes: GC5B164 PTM variant, Hc GC5H263
B29: GC5B501 (antibody, V domains shown)
VH: B5 VH 2 with D55A
VL: B3 VL 2
notes: GC5B164 PTM variant, Hc GC5H248
B30: GC5B497 (antibody, V domains shown)
VH: B5 VH 2 with W33V
VL: B3 VL 2
notes: GC5B164 PTM variant, Hc GC5H252
B31: GC5B504 (antibody, V domains shown)
VH: B5 VH 2 with D55E
VL: B3 VL 2
notes: GC5B164 PTM variant, Hc GC5H245
B32: GC5B488 (antibody, V domains shown)
VH: B5 VH 2 with W33F, D55E
VL: B3 VL 2
notes: GC5B164 PTM variant, Hc GC5H261
B33: GC5B503 (antibody, V domains shown)
VH: B5 VH 2 with D55K
VL: B3 VL 2
notes: GC5B164 PTM variant, Hc GC5H246
B34: GC5B495 (antibody, V domains shown)
VH: B5 VH 2 with W33A, D55Y
VL: B3 VL 2
notes: GC5B164 PTM variant, Hc GC5H254
B35: GC5B496 (antibody, V domains shown)
VH: B5 VH 2 with W33Y
VL: B3 VL 2
notes: GC5B164 PTM variant, Hc GC5H253
B36: GC5B502 (antibody, V domains shown)
VH: B5 VH 2 with D55S
VL: B3 VL 2
notes: GC5B164 PTM variant, Hc GC5H247
B37: GC5B474 (antibody, V domains shown)
VH: B5 VH 2 with W33G, D55A
VL: B3 VL 2
notes: GC5B164 PTM variant, Hc GC5H275

T1 sequence (Q9NZD1 whole entry): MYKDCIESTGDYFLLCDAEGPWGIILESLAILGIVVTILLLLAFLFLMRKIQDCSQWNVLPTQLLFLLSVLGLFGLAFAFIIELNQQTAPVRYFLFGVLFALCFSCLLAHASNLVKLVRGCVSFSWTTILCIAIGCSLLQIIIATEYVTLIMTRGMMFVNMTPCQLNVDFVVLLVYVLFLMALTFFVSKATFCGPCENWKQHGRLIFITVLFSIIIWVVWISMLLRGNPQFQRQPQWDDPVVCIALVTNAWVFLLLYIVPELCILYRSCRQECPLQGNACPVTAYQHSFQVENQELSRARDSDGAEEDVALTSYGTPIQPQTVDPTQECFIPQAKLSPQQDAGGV

The first test addresses T1, human GPRC5D (human, UniProt Q9NZD1 1-345). The test is described as follows: cell-based or functional assay.
Regarding B1, the “T-cell mediated cytotoxicity EC50, H929 (n = 5)” value is 1.2 nM and the “T-cell mediated cytotoxicity EC50, MM1R (n = 3)” value worked out at 0.52 nM.

B2: the “T-cell mediated cytotoxicity EC50, H929 (n = 5)” value was found to be 0.36 nM and the “T-cell mediated cytotoxicity EC50, MM1R (n = 3)” value is 0.21 nM.

Take B3: the “T-cell mediated cytotoxicity EC50, H929 (n = 5)” value came out at 10.3 nM and the “T-cell mediated cytotoxicity EC50, MM1R (n = 3)” value turned out to be 4.41 nM.

Consider B4, for which the “T-cell mediated cytotoxicity EC50, MM1R (n = 3)” value amounted to 2.58 nM.

Take B5: the “T-cell mediated cytotoxicity EC50, H929 (n = 5)” value was 1.39 nM and the “T-cell mediated cytotoxicity EC50, MM1R (n = 3)” value came to 0.74 nM.

The target of another test is T1, human GPRC5D. The test is described as follows: FACS, human GPRC5D cells. (In general: In flow cytometry, cells or beads pass a laser one at a time.)
As to B6, the binding result is on record as “binds”.

In the case of B7, the binding result is “binds”.

Consider B8, for which the binding result was “binds”.

As to B9, the binding result was “binds”.

On to B10, for which the binding result is reported as “binds”.

With B11, the binding result is given as “binds”.

Regarding B12, the binding result is on record as “binds”.

Consider B13, for which the binding result is on record as “binds”.

Take B14: the binding result is recorded as “binds”.

As to B15, the binding result is “binds”.

In the case of B16, the binding result is given as “binds”.

B17: the binding result is “binds”.

As to B18, the binding result is reported as “binds”.

B19: the binding result is listed as “binds”.

For the molecule B20, the binding result is “binds”.

B21: the binding result was “binds”.

Take B22: the binding result is “binds”.

Turning to B23, the binding result is listed as “binds”.

Take B24: the binding result is on record as “binds”.

For B25, the binding result is “binds”.

Turning to B26, the binding result is on record as “binds”.

In the case of B27, the binding result is “binds”.

With B28, the binding result is given as “binds”.

As to B29, the binding result is recorded as “binds”.

As for B30, the binding result was “binds”.

For the molecule B31, the binding result is “binds”.

Take B32: the binding result is reported as “binds”.

As to B33, the binding result is listed as “binds”.

Turning to B34, the binding result is on record as “binds”.

As to B35, the binding result was “binds”.

As to B36, the binding result was “binds”.

For B37, the binding result is reported as “binds”.

(Values after patent US20230227548A1 (published 2023).)
